{"source": "patent US11541126B1", "about": "“Anti-ASGR1 antibody TLR8 agonist comprising conjugates and uses thereof” (Silverback Therapeutics, Inc., priority 2020, dated 2023)", "molecules": {"B1": {"name": "hzG2D-12: humanized G2D clone; \"G2D VL region ... of clones 1-16, 19-21, 26-29, 31, and 33 ... grafted into the human germline sequence VKI-L1 with JK4\" (antibody, V domains shown)", "VH": "QVQLVQSGAEVKKPGASVKVSCKASGYSFTGYYMHWVRQAPGQRLEWMGRINPNNGATNYNQNFKDKATITRDTSASTAYMELSSLRSEDTAVYYCTSVNFYYWGQGTTLTVSS", "VL": "DIQMTQSPSSLSASVGDRVTITCKASQVINSYLSWFQQKPGKAPKSLIYRANTLVDGVPSRFSGSGSGTDFTLTISSLQPEDFATYYCLQYAEFPYTFGGGTKVEIK", "modifications": "Synthetic sequence hzG2.3D VH T28S, R66K, V67A, A93T, R94S, V109L; Synthetic sequence hzG2D VLa"}, "B2": {"name": "hzG2D-15: humanized G2D clone; \"G2D VL region ... of clones 1-16, 19-21, 26-29, 31, and 33 ... grafted into the human germline sequence VKI-L1 with JK4\" (antibody, V domains shown)", "VH": "B1 VH with S28T, T69S, I70L, R72V", "VL": "B1 VL", "modifications": "Synthetic sequence hzG2.42D VH R66K, V67A, T68S, I69L, R71V, A93T, R94S, V109L; Synthetic sequence hzG2D VLa"}, "B3": {"name": "hzG2D-23: humanized G2D clone; \"G2D VL region ... of clones 22, 23, 30, 32, and 34-37 ... grafted into the human germline sequence VKI-O2 with JK4\" (antibody, V domains shown)", "VH": "B1 VH with S28T, T69S, I70L, R72V, L110V", "VL": "B1 VL with F36Y, S46L", "modifications": "Synthetic sequence hzG2.47D VH R66K, V67A, T68S, I69L, R71V, A93T, R94S; Synthetic sequence hzG2D VLb"}, "B4": {"name": "hzG2D-16: humanized G2D clone; \"G2D VL region ... of clones 1-16, 19-21, 26-29, 31, and 33 ... grafted into the human germline sequence VKI-L1 with JK4\" (antibody, V domains shown)", "VH": "B1 VH with T69S, I70L, R72V", "VL": "B1 VL", "modifications": "Synthetic sequence hzG2.5D VH T28S, R66K, V67A, T68S, I69L, R71V, A93T, R94S, V109L; Synthetic sequence hzG2D VLa"}, "B5": {"name": "hzG2D-22: humanized G2D clone; \"G2D VL region ... of clones 22, 23, 30, 32, and 34-37 ... grafted into the human germline sequence VKI-O2 with JK4\" (antibody, V domains shown)", "VH": "B1 VH with S28T, T69S, I70L, R72V, T97A, S98R, L110V", "VL": "B1 VL with F36Y, S46L", "modifications": "Synthetic sequence hzG2.46D VH R66K, V67A, T68S, I69L, R71V; Synthetic sequence hzG2D VLb"}, "B6": {"name": "hzG2D-24: humanized G2D clone; \"G2D VL region ... of clones 24 and 25 ... grafted into the human germline sequence VKI-A20 with JK4 to generate hzG2D VLc (SEQ ID NO:249)\" (antibody, V domains shown)", "VH": "B1 VH with S28T, T69S, I70L, R72V, T97A, S98R, L110V", "VL": "B1 VL with F36Y, A43V, S46L, F83V", "modifications": "Synthetic sequence hzG2.46D VH R66K, V67A, T68S, I69L, R71V; Synthetic sequence hzG2D VLc"}, "B7": {"name": "hzG2D-27: humanized G2D clone; \"G2D VL region ... of clones 1-16, 19-21, 26-29, 31, and 33 ... grafted into the human germline sequence VKI-L1 with JK4\" (antibody, V domains shown)", "VH": "B1 VH with S28T, T69S, I70L, R72V, L110V", "VL": "B1 VL with Q79E, P80Y", "modifications": "Synthetic sequence hzG2.47D VH R66K, V67A, T68S, I69L, R71V, A93T, R94S; Synthetic sequence hzG2.4D VLa Q79E, P80Y"}, "B8": {"name": "hzG2D-14: humanized G2D clone; \"G2D VL region ... of clones 1-16, 19-21, 26-29, 31, and 33 ... grafted into the human germline sequence VKI-L1 with JK4\" (antibody, V domains shown)", "VH": "B1 VH with T69S, I70L, R72V, T97A, S98R", "VL": "B1 VL", "modifications": "Synthetic sequence hzG2.4D VH T28S, R66K, V67A, T68S, I69L, R71V, V109L; Synthetic sequence hzG2D VLa"}, "B9": {"name": "hzG2D-28: humanized G2D clone; \"G2D VL region ... of clones 1-16, 19-21, 26-29, 31, and 33 ... grafted into the human germline sequence VKI-L1 with JK4\" (antibody, V domains shown)", "VH": "B1 VH with S28T, T69S, I70L, R72V, L110V", "VL": "B1 VL with F71Y, T72S", "modifications": "Synthetic sequence hzG2.47D VH R66K, V67A, T68S, I69L, R71V, A93T, R94S; Synthetic sequence hzG2.5D VLa F71Y, T72S"}, "B10": {"name": "hzG2D-26: humanized G2D clone; \"G2D VL region ... of clones 1-16, 19-21, 26-29, 31, and 33 ... grafted into the human germline sequence VKI-L1 with JK4\" (antibody, V domains shown)", "VH": "B1 VH with S28T, T69S, I70L, R72V, L110V", "VL": "B1 VL with K45E, S46T", "modifications": "Synthetic sequence hzG2.47D VH R66K, V67A, T68S, I69L, R71V, A93T, R94S; Synthetic sequence hzG2.3D VLa K45E, S46T"}, "B11": {"name": "hzG2D-13: humanized G2D clone; \"G2D VL region ... of clones 1-16, 19-21, 26-29, 31, and 33 ... grafted into the human germline sequence VKI-L1 with JK4\" (antibody, V domains shown)", "VH": "B1 VH with K67R, A68V, T69S, I70L, R72V", "VL": "B1 VL", "modifications": "Synthetic sequence hzG2.7D VH T28S, T68S, I69L, R71V, A93T, R94S, V109L; Synthetic sequence hzG2D VLa"}, "B12": {"name": "hzG2D-21: humanized G2D clone; \"G2D VL region ... of clones 1-16, 19-21, 26-29, 31, and 33 ... grafted into the human germline sequence VKI-L1 with JK4\" (antibody, V domains shown)", "VH": "B1 VH with S28T, T69S, I70L, R72V, L110V", "VL": "B1 VL", "modifications": "Synthetic sequence hzG2.47D VH R66K, V67A, T68S, I69L, R71V, A93T, R94S; Synthetic sequence hzG2D VLa"}, "B13": {"name": "hzG2D-25: humanized G2D clone; \"G2D VL region ... of clones 24 and 25 ... grafted into the human germline sequence VKI-A20 with JK4 to generate hzG2D VLc (SEQ ID NO:249)\" (antibody, V domains shown)", "VH": "B1 VH with S28T, T69S, I70L, R72V, L110V", "VL": "B1 VL with F36Y, A43V, S46L, F83V", "modifications": "Synthetic sequence hzG2.47D VH R66K, V67A, T68S, I69L, R71V, A93T, R94S; Synthetic sequence hzG2D VLc"}, "B14": {"name": "G2D-C (antibody, V domains shown)", "VH": "EVQLQQSGPELVKPGASVKISCKASGYSFTGYYMHWVKQSHVKSLEWIGRINPNNGATNYNQNFKDKASLTVDKSSSTAYMEFHSLTSEDSAVYYCTSVNFYYWGQGTTLTVSS", "VL": "DIKMTQSPSSMYASLGERVTITCKASQVINSYLSWFQQKPGKSPETLIYRANTLVDGVPSRFSGSGSGQDYSLTISSLEYEDLGIYYCLQYAEFPYTFGGGTKLEIK", "modifications": "IgG1 kappa constant regions; Synthetic sequence G2D VH; Synthetic sequence G2D VL"}}, "note": "Where a chain is given by its changes, count along the chain named. Names may count otherwise."}
{"target": "T1, HepG2 cells (which express ASGR1) (Homo sapiens, UniProt P07306)", "T1 construct": "endogenous in cells; host or cells: HepG2", "T1 sequence (P07306 1-291)": "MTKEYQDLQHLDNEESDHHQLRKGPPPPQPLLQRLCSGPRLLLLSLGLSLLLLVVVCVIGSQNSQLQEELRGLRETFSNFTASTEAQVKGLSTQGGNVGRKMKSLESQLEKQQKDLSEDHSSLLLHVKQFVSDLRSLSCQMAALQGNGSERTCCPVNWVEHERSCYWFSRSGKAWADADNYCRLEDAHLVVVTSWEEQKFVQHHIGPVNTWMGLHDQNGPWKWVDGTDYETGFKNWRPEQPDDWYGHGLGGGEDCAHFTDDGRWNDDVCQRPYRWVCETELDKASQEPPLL", "assay": "Guava HepG2 cell binding screen of humanized anti-ASGR1 clones", "design": "unit not given here", "settings": "humanized G2D clones (Table 5); two numbers per cell, not explained", "procedure": "Hybridomas producing monoclonal antibodies (mAbs) specific for human ASGR1 were prepared from Balb/C mice immunized with ASGR1-AviHis at a service provider using their propriety protocol. Antibody heavy and light chain sequences were obtained, amplified, and cloned. Clone supernatants containing the expressed mAbs were screened for binding to a human ASGR1-IgG1Fc fusion protein, and those with a positive signal as measured by enzyme linked immunosorbent assay (ELISA) were screened for cell binding on HepG2 cells (which express ASGR1)."}
{"molecule": "B1", "Guava HepG2 Screen": "158/113"}
{"molecule": "B2", "Guava HepG2 Screen": "172/119"}
{"molecule": "B3", "Guava HepG2 Screen": "198/131"}
{"molecule": "B4", "Guava HepG2 Screen": "165/108"}
{"molecule": "B5", "Guava HepG2 Screen": "None"}
{"molecule": "B6", "Guava HepG2 Screen": "None"}
{"molecule": "B7", "Guava HepG2 Screen": "191/116"}
{"molecule": "B8", "Guava HepG2 Screen": "37/16"}
{"molecule": "B9", "Guava HepG2 Screen": "145/92"}
{"molecule": "B10", "Guava HepG2 Screen": "185/114"}
{"molecule": "B11", "Guava HepG2 Screen": "140/83"}
{"molecule": "B12", "Guava HepG2 Screen": "199/127"}
{"molecule": "B13", "Guava HepG2 Screen": "None"}
{"molecule": "B14", "Guava HepG2 Screen": "187/145"}
